# The nanobody polyreactivity screen of Harvey et al. (2022)
# Assay: yeast display, Sf9 membrane polyspecificity reagent, FACS + sequencing; frameworks hold sequencing errors
# Outline: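 Genes from sorted yeast were amplified by colony PCR, read by MiSeq 2 × 250 sequencing and filtered on CDR length. These cells carried a synthetic nanobody library in Saccharomyces cerevisiae BJ5465 and were sorted by FACS into low and high (top ~1%) gates on anti-HA and streptavidin fluorescence. Polyreactivity is labelled according to the gate of origin.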
row,Sequence,polyreactivity (PSR sort gate)
1,QVQLVESGGGLVQAGGSLRLSCAASGIIFQWYAMGWYSQAPGKERELVAAINSDGSTYYADSVKGRFTISRDNAKNTVYLQMNSLIPEDTAVYYCAADFIPLIGFDYWGQGTQVTVSS,low polyreactivity
2,QVQLVESGGGLVQAGGSLRLSCAASGRIFVTYAMGWYRQAPGTERELVAAINSSVSSTRYADSVKGRFTMSRDNAKNTVYLQMNSLKPEDTAVYYCAAVYRYVRPIAKDEYWGQGTQVTVSS,low polyreactivity
3,QVQLQESGGGLVQAGDSLRLSCAASGTISGRDSMGWYRQAPGKEREFVASIDFGTNTYYADSVKGRFTISRDNAKNTVYLQMNRLTAVYYCAAPDSQYSYWGQGTQVTESS,high polyreactivity
4,QVQLVESGGGLVQAGGSLRLSCAASGFTIAGYAMGWYRQAPWKERELVAAISRGGITYYADSVKGRFTISRDNAKNTVYLQMNSLKPEDTAVYYCAAGKRWSTKYGYWGQGTQVTVSS,high polyreactivity
5,QVQLVESGGGLVQAGGSLRLSCAASGSIFDTYAMGWYRQAPGKERELVATITRSGARTYYADSVKGRFTISRDNAKNTVYLQMNSLKPEDTAVYYCAALYYDDFGYEYDYWGQGTQVTVSS,low polyreactivity
6,QVQLVESGGCLVQAGGSLRLSCAASGRSFDKYTMGWYRQAPGKERELVAAISTRGGSTYYADSVKGRFTISRDNAKNTVYLQMNSLKPEDTAVYYCATVPRPKAYDYWGQGTQVTVSS,high polyreactivity
7,QVQLVESGGGLVQAGGSLRLSCAASGSTFLPNAMGWYRQAPGKERELVARISYSGGNTYYADSVKGRFTISRDNAKNTVYLQMNSLKPEDTAVYYCAAVGWYHDYYWGQGTQVTVSS,high polyreactivity
8,QVQLVESGGGLVQAGGSLRLSCAASGRTIRRYAMGWYRQAPGKERELVAAISYSGGSTYYADSVKGRFTISRDNAKNTVYLQMNSLKPEDTAVYYCAARYLGKKYYYWGQGTQVTVSS,high polyreactivity
9,QVQLVESGGGLVQAGGSLRLSCAASVISFARNVMGWYRQATGKERELVAGISRRGGSTYYADSVKGRFTISRDNAKNTVYLQMNSLKPEDTAVYYCAAEYIRNGDYGLDYWGQGTQVTVSS,high polyreactivity
10,QVQLVESGGGLVQAGGSLRLSCAASGYIFTSYATMGWYRQAPGKERELVATISSGGSTNYADSVKGRVTISRDNAKNTVYLQMNSLKPEDTAVYYCYADRFYTYWGYSWVYPSGSWGQGTQVTVSS,low polyreactivity
11,QVQLVESGGGLVQAGGSLRLSCAASGSTFGYYAMGWYRQAPGKERELVAAINVSGGRTYYADSVKGRFTISRDNAKNTVYLQMNSLKPEDTAVYYCAASLYSYRSPYTFYYWGQGTQVTVSS,high polyreactivity
12,QVQLVESGGGLVQAGGSLRLSCAASGSTFVVNAMGWYRQAPGKERELVAAITQSGGSTFYADSVKGRFTISRDNAKNTVYLQINSLKPEDTAVYYWGQCTQVTVSS,low polyreactivity
13,QVQLVESGGGLVQAGGRLRLSCAASGRIFDANVMGWYRQAPGKERELVAAISSGGRTKYADSVKGRFTISRDNAKNNVYLQMNSLKPEDTAVYYCAKKHSPLYDYWGQGTQVTVSS,low polyreactivity
14,QVQLVESGGGLVQARGSLRLSCAASGRIFGNNAKGWYRQAPGKARELVAAIRRGGSTYYADSVKGRFTISRDNAKITVYLQMNSLKPEETAVYYCAADSSRKHFYWGQGTQVTVSS,high polyreactivity
15,QVQLVESGGGLVQAGGSLRLSCAASGSIFGNAMGWYRQAPGKEREFVAAISSSGSSTYYADSVKGRFTISRDNAKNTVYLQMNSLKPEDTAVYYCAKRRRSAAPKYDYWGQGTQVTVSS,high polyreactivity
16,QVQLVESGGGLVQAGGSLRVSSAASGSIFDYYEMGWYRQAPGKEREMVAAINISGGDTYYADSVKGRFTISRDNAKNTVYLQMNSLNPEDTAVYYCAADWVTWWFSRVGWDYGYWGQGTQVTVSS,low polyreactivity
17,QVQLVESGGGLVQAGGSLRLSCAASGSIFRYYAMGWYRQAPGKERELVAAITSSAGSTYYADSVKGRFTISRDNAKNTVYLQMNSLKPEDTAVYYCNALVQGKEYYWGQGTQVTVSS,high polyreactivity
18,QVQLVESGGGLVQAGGSLRLSCAASGRTFCVYVMGWYRQAPGKERQLVAAIDDSGGSTYYADSVKGRFTISRDNAKNTVYLQMNSLKPEDTAVYYCAKTKTQYLTSEIRFDYWGQGTQVTVSS,low polyreactivity
19,QVQLVESGGGLVQAGGSLRLSCAASGSTFTVNGMGWYRQAPGKERELVAAITWSGGSTYYADSVKGRFTISRDTAKNTVYLQMNSLKPEDTAVYYCAADENLYITGYDYWGQGTQVNVSS,low polyreactivity
20,QVQLVESGGGIVQAGGILRLSCAASGRNLHGYTMGWYRQAPGKERELVATISSIGGSTYYADSVKGRFTISRDNAKNTVYLQMNSLKPEDTAVYYCAATRGRRYQSYYWGQGTQVTVSS,low polyreactivity
21,QVHLVESGGGLVQAGGSLRLSCAASGFTFNGYAMGWYRQAPGKESEMVAGITRRGGITYYADSVKGRFTISRYNAKNTVYLQMNSLKPEETAVYYCARDYIGHALIHHASLYYYWGQGTQVTVSS,high polyreactivity

row,Sequence,polyreactivity (PSR sort gate)
1,QVQLVESGGGLVQAGGSLRLSCAASGRTFYSYAMGWYRQAPGKERELVAAISRSGNTYYADSVKGRFTISRDNAKNTVYLQMNSLKPEDTAVYYCAAYYWWGYPENDYWGQGTQVTVSS,high polyreactivity
2,QVQLVESGGGLVQAGGRLRLSFAASGLTFWWYAMGWYRQAPGKERELVAAIDSADITNYADSVKGRFTISRDNAKNTVYLQMNSLKPEDTAVYYCAAGRDYYVVNYVLFLFDYWGQGTQVTVSS,high polyreactivity
3,QVQLVESGGGLVQAGGSLRLSCAASGRTFSYYAMGWYRQAPGKERELVAAIDDNGGTTYADSVKGRFTISRDNATNTVYLQINSLKPEDTAVYYCAKRVSYFWALRRGYWGQGTKVTVSS,high polyreactivity
4,QDQLVQSGGGLVQAGGTLRLSCAASGRIIYVNAMGWYRQAPGKERDFVATITRGGSTYYADSVKGRFTISRDNAKNTVYFQMNSLQPEDTAVYYCATVRGGWKGRGHRNDYWGQGTQVTVSS,high polyreactivity
5,QVQLVESGGGLVQAGGSLLLSCAASGRTFAPYAMGWYRQAPGKERELVAAISSGGGNTYYADSVKGRFTISRDNAKITVYLHMNSLKPEDTAVYYCNAAQRRGGLGYSGQGTQVTVSS,high polyreactivity
6,QVQLVESGGGLVQAGGSLRLSCAASGSIFSHYAMGWYRQAPGKERELVAAISRSGGSTYYADSVKGRFTISRDNAKNTVYLQMNSLKPEDTAVYYCAKEGDSGYWFDYWGQGTQVTVSS,low polyreactivity
7,QVQLVESGGGLVQAGGSLRLSCAASGRTFTGYAMGWDRQAPGKERELVAGISYRGGSTYYADSVKGRFTISRDNAKNTVYLQMNSLKQEVTAVYYCARDYSRHKGDYWGQGTQVTVSS,low polyreactivity
8,QVQLVESGGGLVQAGGSLRLSCAASGLIFSWYAMGWYRQAPGKERELVAAITGSGGRTYYADSVKGRFTISRDNAKNTVYLQMNSLKPEDTAVYYCAALYTARYDYWGQGTQVTVSS,high polyreactivity
9,QVQLVESGGGLVQAGGSLRLSCAASGRIFSNYAMGWYRQAPGKERELVAAISYSGDSTYYADSVKGRFTISRDNAKNTVYLQMNSLKPEDTAVYYCAAVRSYRRYPQSSDLYYYWGQGTQVTVSS,high polyreactivity
10,QVQLVESGGGLVQAGGSLRLSCAASGITFSRNAMGWYRQAPGKERELVATITSGGSTNYADSVKGRFTISRDNAQNTVYLQMNSLKPEDTAVYYCNAVWNTFISGRSYDYWGQGTQVTVSS,low polyreactivity
11,QVQLVESGAGLVQAGGRLRLSCAASGIIFRPYAMGWYRQAPGKERELVAAITGSGVSTYYADSVKGRFTISRDNAKITVYLQMNSLKPEDTAVYYCAKRYNRCDHRYDYWGQGTQVTVSS,low polyreactivity
12,QVQLVESGGGLVQAGGSLRLSCAATGRTFSGNAMGWYRQAPAKERELVAAISRSGGTTYYADSVKGRFTISRDNAKNPVYLQMNSLKPEDTAVYYCNRGWANWLGPDDYWGQGNQVTVSS,high polyreactivity
13,QVQLVESGGGLVHAGGSLRLSCADSGRIFYANALGWSRQSPGRERELVAAISSGGSTYYADSVKGRFTSSRDNAKNTVYLQMNSLKPEDTAVYYCAVYTLKKVRPEYDYWGQGTQVTVSS,low polyreactivity
14,QVQLVESGGGLVQAGGSLRLSCAASGFTFRYYVMGWYRQSPGKERELVAAISWSGGSTYYADSVKGRFTISRDNAKNTVYLQMNSLKPEDTAVYYCNAASLSKSDYWGQGTQVTVSS,high polyreactivity
15,QVQLVESGGGLVQAGGSLRLSCAASGRIFHYYMGWYRQAPGKERELVAVISSGDGTYYADSVKGRFTISRDNAKYTVYLQMNSLKPEDTAVYYCAADAPREYVDHYKYDDDYWGQGTQVTVSS,low polyreactivity
16,QVQLVESGGGLVQAGGSLRLSCAASGSIFSYYAMGWYRQAPGKERELVAANDWNVDSTYYADSVKGRFTISRDNAKNTVYLQLNSLNPEDTAVYYCNAEVYYFYTRYTWYLYDYWRQGTQVTVSS,low polyreactivity
17,QVQLVESGGGLVQAGGSLRLSCAASGFIFSSYAKGWYRQAPGKERELVAVITRSGRRTYYADSVKGRFTISRDNAKNTFYLQMNSLKPEDTAVYYCNATLPNEVAPNDYWGQGTQVTVSS,high polyreactivity
18,QVQLVESGGGLVQAGGSLRVSCAASVRTLFGNALGWYRQAPGKERELLAAISFSGGRTEYADSVKGRFTISRDNAMNTVYLQMNSLKPEDTAVYYCAARTYSAPRNRYYYWGQGTQVTVSS,high polyreactivity
19,QVQLVESGGGLVQAGGSLRLSCAASGLTFVQNAMGWYRQAPGKERELVAAISSRGGSTYYADSVKGRFTISRDNAKNTVYLQMNSLKPEETAVYYCNTRSITKYDYWRRGYGYWGQGTQVTVSS,high polyreactivity
20,QVQLVESGGGLVQAGGSLRLSCAASGRTYRYYAMGWYRQAPGKERELVAAITASTGRTYYADSVKGRFTISRDNAKNSVYLQMNRLKPEDTAVYYCDARQSSYRYPGSYEYWGQGTQVTVSS,high polyreactivity
